The values that follow come from IntAct's records for PubMed 16415179.

The chains are these.
B1: Transcriptional repressor p66-alpha (Homo sapiens), Q86YP4 (parent)
chain: MTEEACRTRSQKRALERDPTEDDVESKKIKMERGLLASDLNTDGDMRVTPEPGAGPTQGLLRATEATAMAMGRGEGLVGDGPVDMRTSHSDMKSERRPPSPDVIVLSDNEQPSSPRVNGLTTVALKETSTEALMKSSPEERERMIKQLKEELRLEEAKLVLLKKLRQSQIQKEATAQKPTGSVGSTVTTPPPLVRGTQNIPAGKPSLQTSSARMPGSVIPPPLVRGGQQASSKLGPQASSQVVMPPLVRGAQQIHSIRQHSSTGPPPLLLAPRASVPSVQIQGQRIIQQGLIRVANVPNTSLLVNIPQPTPASLKGTTATSAQANSTPTSVASVVTSAESPASRQAAAKLALRKQLEKTLLEIPPPKPPAPEMNFLPSAANNEFIYLVGLEEVVQNLLETQGRMSAATVLSREPYMCAQCKTDFTCRWREEKSGAIMCENCMTTNQKKALKVEHTSRLKAAFVKALQQEQEIEQRLLQQGTAPAQAKAEPTAAPHPVLKQVIKPRRKLAFRSGEARDWSNGAVLQASSQLSRGSATTPRGVLHTFSPSPKLQNSASATALVSRTGRHSERTVSAGKGSATSNWKKTPLSTGGTLAFVSPSLAVHKSSSAVDRQREYLLDMIPPRSIPQSATWK

The variants in this assay derive from B1. As to conditions: with mbd2_human MBD2, Q9UBB5.
Sequence of mbd2_human MBD2, Q9UBB5 (Q9UBB5 whole entry): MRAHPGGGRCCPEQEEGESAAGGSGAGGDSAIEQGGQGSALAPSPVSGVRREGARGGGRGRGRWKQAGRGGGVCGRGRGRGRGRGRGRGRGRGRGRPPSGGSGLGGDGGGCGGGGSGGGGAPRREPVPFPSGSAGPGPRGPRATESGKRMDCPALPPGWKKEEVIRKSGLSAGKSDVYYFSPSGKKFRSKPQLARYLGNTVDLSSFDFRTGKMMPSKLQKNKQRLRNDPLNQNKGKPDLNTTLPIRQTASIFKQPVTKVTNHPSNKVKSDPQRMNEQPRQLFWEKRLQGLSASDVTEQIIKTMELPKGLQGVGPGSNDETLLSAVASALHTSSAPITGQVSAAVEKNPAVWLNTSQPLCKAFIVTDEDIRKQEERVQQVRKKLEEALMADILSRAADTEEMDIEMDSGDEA
For K149R, the “effect of a mutation on the interaction” value was “decreasing interaction”.
